Source: the supplement of paper PMC10126150
± gives the standard deviation of the averaged measurements.

The sequences below were run on ATP (assay: switch fluorescence ratio, 500 uM ATP over buffer (Cy3 cluster intensity, sum of 5 cycles each) (fold (ratio)); higher = stronger signal-on switching upon ATP binding; sequences stand for … in TCGTCGGCAGCGTCAGATGTGTATAAGAGACAGTTTTTTTTTTTTTTTTTTTTTTTTT…TC). Conditions: aptamer strand: ATP DNA aptamer (quencher-CACCTGGGGGAGTATTGCGGAGGAAGG + anchor), 100 nM annealed; ATP concentration: 500 uM.
Procedure, shortened: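 Clusters carrying Cy3-labelled switching strands on a modified Illumina MiSeq flow-cell were annealed to 100 nM quencher-labelled ATP aptamer and imaged in selection buffer. They were imaged again after 15 min with 500 uM ATP at 22 °C, over five buffer/ATP cycles with NaOH stripping and re-annealing in between. For each cluster, the fluorescence ratio is the summed Cy3 intensity of the target cycles divided by that of the buffer cycles, averaged per switch-domain sequence. Clusters outside 100-1000 RFU were left out.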
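Further: ATP exposure 15 min at 22 °C before imaging.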

Sequence	switch fluorescence ratio
TGGGTACGCA	1.03 ± 0.027
TGGGTAGAAG	0.9916 ± 0.0014
TGGGTAGGAG	0.987 ± 0.025
TGGGTAGGGG	0.985 ± 0.025
TGGGTAGTAC	1.04 ± 0.039
TGGGTAGTAT	0.977 ± 0.012
TGGGTATGG	1.07 ± 0.072
TGGGTCAGTG	1 ± 0.021
TGGGTCCGTG	0.963 ± 0.033
TGGGTCGGGT	0.9817 ± 0.0088
TGGGTCTTTT	1.01 ± 0.054
TGGGTGACGG	0.958 ± 0.036
TGGGTGAGAT	1.01 ± 0.032
TGGGTGAGCT	1.01 ± 0.036
TGGGTGAGGG	1 ± 0.0037
TGGGTGATAT	0.989 ± 0.018
TGGGTGCACG	0.996 ± 0.057
TGGGTGCATG	0.9897 ± 0.0049
TGGGTGCCGG	0.929 ± 0.11
TGGGTGGCGA	1.02 ± 0.043
TGGGTGGCGG	0.945 ± 0.052
TGGGTGTCTG	0.9826 ± 0.0043
TGGGTTACGA	1.04 ± 0.035
TGGGTTAGAT	0.976 ± 0.025
TGGGTTATAG	0.9786 ± 0.0038
TGGGTTATGG	0.972 ± 0.016

Sequence	switch fluorescence ratio
TGGGTTATTT	1 ± 0.038
TGGGTTCGAG	1.005 ± 0.0097
TGGGTTGGGT	0.993 ± 0.022
TGGGTTGGTT	1 ± 0.036
TGGGTTGTTG	0.985 ± 0.038
TGGGTTTACG	1.03 ± 0.029
TGGGTTTAGG	1.02 ± 0.025
TGGGTTTGC	0.98 ± 0.054
TGGGTTTGCT	1.001 ± 0.0063
TGGGTTTGTA	0.984 ± 0.019
TGGTAAAAAG	1.025 ± 0.0047
TGGTAAAAGG	0.991 ± 0.038
TGGTAAAGTA	0.991 ± 0.02
TGGTACCTTG	1.19 ± 0.26
TGGTACGGGT	1.03 ± 0.011
TGGTAGAGAG	0.9883 ± 0.0075
TGGTAGATT	1.01 ± 0.046
TGGTAGCTGT	1.01 ± 0.062
TGGTAGGATG	0.964 ± 0.05
TGGTATCGGC	0.992 ± 0.01
TGGTATTGCA	0.999 ± 0.028
TGGTATTTTT	0.991 ± 0.029
TGGTCAAAAA	0.9972 ± 0.0036
TGGTCATTGC	1.064 ± 0.0086
TGGTCCAGCG	0.998 ± 0.015
TGGTCCTCCG	1.87 ± 0.31

Sequence	switch fluorescence ratio
TGGTCGGCAA	1.045 ± 0.0081
TGGTCTAGGT	1.01 ± 0.028
TGGTCTGCCC	0.975 ± 0.053
TGGTCTTCAT	1 ± 0.022
TGGTGAAATG	1 ± 0.013
TGGTGAAGGG	0.976 ± 0.016
TGGTGACTTA	0.974 ± 0.039
TGGTGAGGGT	0.999 ± 0.025
TGGTGATGGC	0.991 ± 0.012
TGGTGATGGT	1.03 ± 0.058
TGGTGCACC	0.983 ± 0.042
TGGTGCCCCA	1.03 ± 0.023
TGGTGCGGGG	0.999 ± 0.026
TGGTGGCCGC	0.982 ± 0.032
TGGTGGGATG	0.977 ± 0.021
TGGTGGGATT	0.995 ± 0.012
TGGTGGGGGC	1 ± 0.052
TGGTGGGTGT	0.987 ± 0.024
TGGTGGGTTC	1.03 ± 0.067
TGGTGGTGGT	1.01 ± 0.033
TGGTGGTTTT	1.03 ± 0.025
TGGTGTATGT	0.995 ± 0.022
TGGTGTGGAG	1.062 ± 0.006
TGGTGTTGGA	0.9906 ± 0.0068
TGGTTACCGA	1 ± 0.014
TGGTTACTGT	1.02 ± 0.022

Sequence	switch fluorescence ratio
TGGTTAGGGG	1.06 ± 0.084
TGGTTAGTTT	0.997 ± 0.016
TGGTTATATT	1.02 ± 0.026
TGGTTCCCAG	1.04 ± 0.031
TGGTTCGCTA	1.02 ± 0.013
TGGTTCGGAA	1.016 ± 0.0048
TGGTTCTAG	0.989 ± 0.024
TGGTTCTTTT	1.02 ± 0.056
TGGTTGACGA	1.01 ± 0.14
TGGTTGCGGC	0.986 ± 0.03
TGGTTGGGAT	1 ± 0.04
TGGTTGGGGT	1.01 ± 0.054
TGGTTGGT	0.9755 ± 0.0095
TGGTTGTCCC	1.01 ± 0.038
TGGTTGTTCC	1.03 ± 0.025
TGGTTGTTTT	0.99 ± 0.018
TGGTTTAAGG	0.9844 ± 0.0088
TGGTTTAAGT	0.987 ± 0.027
TGGTTTAATT	1.01 ± 0.017
TGGTTTATAT	1 ± 0.013
TGGTTTCCCA	0.9738 ± 0.0042
TGGTTTGCGC	1.36 ± 0.46
TGGTTTGGGC	0.984 ± 0.034
TGGTTTGTAT	1 ± 0.029
TGGTTTGTGG	0.974 ± 0.037
TGGTTTTAGC	0.9886 ± 0.0028

Sequence	switch fluorescence ratio
TGGTTTTCGT	1.01 ± 0.028
TGGTTTTGTG	0.9862 ± 0.0015
TGGTTTTTGC	0.961 ± 0.057
TGGTTTTTTA	0.993 ± 0.025
TGTAAAAGGT	1.04 ± 0.092
TGTAAAGGCG	0.953 ± 0.039
TGTAAAGGGA	0.998 ± 0.024
TGTAACCTTT	1.04 ± 0.018
TGTAAGCCTT	1.03 ± 0.079
TGTAAGCTGG	1.03 ± 0.073
TGTAAGGGAC	1.07 ± 0.034
TGTAAGGGGT	1.06 ± 0.085
TGTAAGTCTT	0.966 ± 0.032
TGTAAGTGCG	0.9833 ± 0.0063
TGTAATGCCC	0.991 ± 0.02
TGTACGTAG	1.01 ± 0.012
TGTACTAGGA	0.968 ± 0.018
TGTACTGGGG	1.003 ± 0.0094
TGTAGCAGCG	1.1 ± 0.16
TGTAGCATCT	1.081 ± 0.0096
TGTAGGGGTA	0.98 ± 0.045
TGTAGGGGTT	1 ± 0.044
TGTAGTACCG	1.021 ± 0.0056
TGTAGTACTT	1.02 ± 0.016
TGTAGTTGGT	1.014 ± 0.0096
TGTAGTTTGA	1 ± 0.012

Sequence	switch fluorescence ratio
TGTATACTTT	1.018 ± 0.0081
TGTATAGGGT	1.01 ± 0.048
TGTATATGG	0.958 ± 0.016
TGTATTGGTT	0.99 ± 0.034
TGTATTTTGT	0.976 ± 0.022
TGTCAAAGAT	0.9772 ± 0.0044
TGTCACAGTT	1.01 ± 0.013
TGTCAGGGCA	1.02 ± 0.064
TGTCAGTGCG	0.97 ± 0.042
TGTCATAATG	0.97 ± 0.015
TGTCGAAAGA	0.999 ± 0.013
TGTCGACTGT	0.987 ± 0.042
TGTCGGAGGT	1.02 ± 0.05
TGTCGGGGAG	1.01 ± 0.018
TGTCGGGGGG	1.01 ± 0.028
TGTCGGTCGG	0.984 ± 0.015
TGTCGTCTGT	0.9932 ± 0.0063
TGTCTATAGT	0.986 ± 0.036
TGTCTATCGG	0.974 ± 0.014
TGTCTCGCCC	1.02 ± 0.024
TGTCTCTGTC	1.01 ± 0.021
TGTCTGAGGG	1 ± 0.013
TGTCTGCAGC	1.022 ± 0.0085
